According to PMC3946611, “hCLE/C14orf166 Associates with DDX1-HSPC117-FAM98B in a Novel Transcription-Dependent Shuttling RNA-Transporting Complex” (PLoS ONE, 2014):

Biological target: the molecule itself
Assay: native gel or EMSA; purified hCLE-CBD, dialyzed, non-denaturing gel, Western blot against hCLE

B1: hCLE-TAP tagged protein, purified as hCLE-CBD (natural protein, human, UniProt Q9Y224 1-244, looked up)
chain: MFRRKLTALDYHNPAGFNCKDETEFRNFIVWLEDQKIRHYKIEDRGNLRNIHSSDWPKFFEKYLRDVNCPFKIQDRQEAIDWLLGLAVRLEYGDNAEKYKDLVPDNSKTADNATKNAEPLINLDVNNPDFKAGVMALANLLQIQRHDDYLVMLKAIRILVQERLTQDAVAKANQTKEGLPVALDKHILGFDTGDAVLNEAAQILRLLHIEELRELQTKINEAIVAVQAIIADPKTDHRLGKVGR
notes: hCLE/C14orf166, human; In the cells the protein carries the whole TAP tag (hCLE-TAP); after the TEV step of the purification it is hCLE-CBD; also called hCLE/C14orf166; protein C14orf166 (CLE); source: HEK293T, transfected with pChCLE-TAP; TAP purified (IgG-Sepharose, Calmodulin-Agarose) from total, nuclear or cytosolic extracts
  stoichiometry N: 2
